Reference: patent US20190359704A1 (Chugai, published 2019)
Substitutions are numbered along the chain they refer to.

T1: membrane-type human IL-6R expressed on cells (human, UniProt P08887 20-468)
T1 construct: These are Ba/F3 cells (BaF/hIL-6R, WO2012/073992) or CHO cells expressing human IL-6 receptor; also called hIL-6R expressed on cell membrane; cell-membrane hIL-6R
T1 sequence: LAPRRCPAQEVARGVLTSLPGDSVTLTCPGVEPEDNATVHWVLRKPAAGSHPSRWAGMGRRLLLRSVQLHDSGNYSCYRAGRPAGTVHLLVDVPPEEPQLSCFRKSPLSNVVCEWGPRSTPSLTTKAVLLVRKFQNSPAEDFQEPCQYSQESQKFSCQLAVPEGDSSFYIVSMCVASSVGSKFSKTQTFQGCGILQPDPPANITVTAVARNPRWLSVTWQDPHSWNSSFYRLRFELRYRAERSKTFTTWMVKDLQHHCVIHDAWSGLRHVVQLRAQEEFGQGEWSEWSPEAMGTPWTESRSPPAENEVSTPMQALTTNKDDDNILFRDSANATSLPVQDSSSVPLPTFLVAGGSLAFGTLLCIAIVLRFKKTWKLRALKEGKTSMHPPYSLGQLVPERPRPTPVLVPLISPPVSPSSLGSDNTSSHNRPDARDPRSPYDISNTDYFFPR

T2: human IL-6 receptor (soluble hIL-6R) (human, UniProt P08887 20-357, limits assumed, biotin-labeled in the ELISA experiments (sites not given))
T2 construct: also called biotin-labeled hIL-6R
T2 sequence: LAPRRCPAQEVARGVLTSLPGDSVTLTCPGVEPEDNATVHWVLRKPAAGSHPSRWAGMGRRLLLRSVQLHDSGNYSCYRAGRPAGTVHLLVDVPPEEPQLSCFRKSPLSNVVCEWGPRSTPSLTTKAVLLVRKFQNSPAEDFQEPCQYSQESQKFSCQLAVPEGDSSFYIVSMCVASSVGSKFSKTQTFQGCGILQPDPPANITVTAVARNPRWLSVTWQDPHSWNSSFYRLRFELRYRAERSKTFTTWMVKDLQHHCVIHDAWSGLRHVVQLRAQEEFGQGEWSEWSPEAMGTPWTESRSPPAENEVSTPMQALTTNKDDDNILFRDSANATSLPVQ

B1: MRA (antibody, human IgG1, kappa, V domains shown)
VH: QVQLQESGPGLVRPSQTLSLTCTVSGYSITSDHAWSWVRQPPGRGLEWIGYISYSGITTYNPSLKSRVTMLRDTSKNQFSLRLSSVTAADTAVYYCARSLARTTAMDYWGQGSLVTVSS
VL: DIQMTQSPSSLSASVGDRVTITCRASQDISSYLNWYQQKPGKAPKLLIYYTSRLHSGVPSRFSGSGSGTDFTFTISSLQPEDIATYYCQQGNTLPYTFGQGTKVEIKR
notes: also called known anti-human IL-6R antibody MRA; control antibody MRA
B2: I6NMSC1-3_A11 (antibody, human IgG1, lambda, V domains shown)
VH: QVQLQESGGGVVQPGRSLRLSCAASGFTFSSYAMHWVRQAPGKGLEWVAVISYDGSNKYYADSVKGRFTISRDNSKNTLYLQMNSLRAEDTAVYYCARDAVTGDDWYFDLWGRGTLVTVSS
VL: SYELTQPPSVSVAPGKTARITCGGNNIGSKSVHWYQQKPGQAPVLVVYDDSDRPSGIPERFSGSNSGNTATLTISRVEAGDEADYYCQVWDSSSDHPVFGGGTKLTVLG
B3: GC413 (antibody, human IgG1, kappa, L234A L235A, N297A, V domains shown)
VH: QVQLVQSGAEVKKPGASVKVSCKASGYTFTDYEMHWIRQPPGQGLEWIGAIDPKTGDTAYSQKFKGRVTLTADKSTSTAYMELSSLTSEDTAVYYCTRFYSYTYWGQGTLVTVSS
VL: DIVMTQSPLSLPVTPGEPASISCRSSQSLVHSNRNTYLHWYQQKPGQAPRLLIYKVSNRFSGVPDRFSGSGSGTDFTLKISRVEAEDVGVYYCSQNTHVPPTFGQGTKLEIKR
notes: also called anti-human glypican 3 antibody GC413; anti-human glypican-3 antibody GC413
B4: 6RNMSC1-2_F02 (antibody, human IgG1, kappa)
heavy: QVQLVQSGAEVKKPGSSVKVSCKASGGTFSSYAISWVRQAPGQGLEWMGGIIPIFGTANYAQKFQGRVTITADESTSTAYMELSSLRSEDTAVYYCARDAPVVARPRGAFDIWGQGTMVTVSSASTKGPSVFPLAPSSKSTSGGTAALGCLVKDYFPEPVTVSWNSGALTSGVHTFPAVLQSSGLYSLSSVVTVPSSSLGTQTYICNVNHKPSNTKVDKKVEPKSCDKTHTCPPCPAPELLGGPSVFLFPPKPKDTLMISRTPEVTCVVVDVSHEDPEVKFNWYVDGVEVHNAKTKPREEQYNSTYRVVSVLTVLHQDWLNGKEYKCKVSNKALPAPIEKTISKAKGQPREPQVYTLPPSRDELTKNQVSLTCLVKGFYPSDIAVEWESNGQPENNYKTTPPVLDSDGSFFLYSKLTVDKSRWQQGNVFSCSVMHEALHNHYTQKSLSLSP
light: DIVMTQTPLSSPVTLGQPASISCRSSQSLVHSDGNTYLSWLQQRPGQPPRLLIHEISNRFSGVPDRFSGSGAGTNFTLKISRVEAEDVGVYYCMQATQFPRTFGQGTKVEIKRTVAAPSVFIFPPSDEQLKSGTASVVCLLNNFYPREAKVQWKVDNALQSGNSQESVTEQDSKDSTYSLSSTLTLSKADYEKHKVYACEVTHQGLSSPVTKSFNRGEC
notes: also called clone 6RNMSC1-2_F02
B5: 6RAD2C1-4_001 (antibody, human IgG1, kappa, V domains shown)
VH: EVQLVESGGDLVKPGGGLRLSCAASGFTFSGHTMNWVRQAPGKGLEWVSSISSRSNYIYYADSVKGRFTISRDNAKNSLYLQMNSLRAEDTAVYYCARYGRLHDRNWVFDYWGQGTLVTVSS
VL: QSALTQPPSASGSPGQTVTISCTGTSTDVGDYNYVSWYQQHPGKAPKLMIYQVSKKPSGVPDRFSGSKSGNTASLTVSGLQAEDEADYFCSSRSYGAGVVFGGGTKLTVLR
notes: also called 6RAD2C1-4_01
B6: 6RAD2C1-4_005 (antibody, human IgG1, kappa, V domains shown)
VH: B5 VH with G31T, N56S, Y59H, Y99F, R101K, H103G, D104E
VL: B5 VL with S92V, Y95D, A97H, V99P, V100M
notes: also called 6RAD2C1-4_05
B7: 6RAD2C1-4_011 (antibody, human IgG1, kappa, V domains shown)
VH: B5 VH with N56S, R101A, H103G, D104Q, R105M
VL: B5 VL with Q52S, K56R, Y95S, G96S, A97M, G98N, V100L
notes: also called 6RAD2C1-4_11
B8: 6RAD2C1-4_026 (antibody, human IgG1, kappa, V domains shown)
VH: B5 VH with H32Y, I58A, Y59H, H103G
VL: B5 VL with D31A, Q52K, S92L, S94A, Y95A, G96T, A97T, V100L
notes: also called 6RAD2C1-4_26
B9: 6RAD2C1-4_030 (antibody, human IgG1, kappa, V domains shown)
VH: B5 VH with G31S, H32Y, N56G, I58A, Y99F, R101A, H103N, D104T, R105L
VL: B5 VL with S92T, S94T, Y95A, G96N, V100L
notes: also called 6RAD2C1-4_30
B10: 6RAD2C1-4_076 (antibody, human IgG1, kappa, V domains shown)
VH: B5 VH with H32Y, N56S, Y59D, R101A, H103G, D104Q
VL: QSALTQPPSASGSPGQTVTISCTGTSTDVGDYNYVSWYQQHPGKAPKLMIYQTSKRPSGVPDRFSGSKSGNTASLTVSGLQAEDEADYFCSSRSIKHPVFGGGTKLTVLR
notes: also called 6RAD2C1-4_76
B11: 6RDL3C1-4_085 (antibody, human IgG1, kappa, V domains shown)
VH: B5 VH
VL: B5 VL
notes: also called 6RDL3C1-4_85

Legend:
[1] = molecular target: T1, membrane-type human IL-6R expressed on …; assay: flow cytometry, BaF/hIL-6R cells, secondary antibody against the constant region, with or without 100 µM kynurenine
Method: An appropriate number of BaF/hIL-6R cells were prepared and blocked with PBS containing 2% FBS on ice for one hour or more. […] In this step, the antibodies were contacted with cell-membrane hIL-6R on ice for 30 minutes. […] Then, in the presence or absence of kynurenine, the complex was contacted with a secondary antibody (Beckman Coulter IM1627) that recognizes the antibody constant region. After 30 minutes of incubation with the antibody on ice, the cells were again washed with Wash Buffer and then re-suspended in PBS/2% FBS.

human IL-6 [2] = molecular target: T3, human IL-6 (human, biotin-labeled in the ELISA experiments (sites not given)); assay: SPR Biacore T200, A11 captured on protein A/G CM5 chip, human IL-6 analyte, 37 C, running buffer with 100 µmol/l kynurenine; SPR kinetics, A11 captured on the chip, IL-6 analyte, 100 µmol/l kynurenine
T3 construct: ELISA used biotin-labeled human IL-6; SPR used human IL-6 from Kamakura Techno-Science, Inc; also called biotin-labeled human IL-6
Method: Sensor chip CM5 (GE Healthcare) was immobilized with an appropriate amount of protein A/G (Invitrogen) by amine coupling. Antibodies of interest were captured by the chip to allow interaction to IL-6 as an antigen. The two types of running buffers used were 10 mmol/1 ACES, 150 mmol/l NaCl, 0.05% (w/v) Tween20, 100 μmol/l kynurenine, pH 7.4, and 10 mmol/1 ACES, 150 mmol/l NaCl, 0.05% (w/v) Tween20, pH 7.4. The interaction with IL-6 as an antigen was assessed at 37° C. The buffer used to dilute IL-6 was the same running buffer as described above.
Then, the running buffer was injected at a flow rate of 5 μl/min for three minutes. After observation of human IL-6 dissociation from the antibody, 10 mmol/l glycine-HCl (pH 1.5) was injected at a flow rate of 30 μl/min for 30 seconds to regenerate the sensor chip. […] Each parameter was calculated using the Biacore T200 Evaluation Software (GE Healthcare).

human IL-6 [3] = molecular target: T3, human IL-6; assay: SPR (Biacore T200), A11 immobilised on CM5, 1 µmol/L IL-6 as analyte for 60 s, 25 °C, kynurenine concentration varied (axis in µmol/L)
Method: The running buffer used was 10 mmol/1 ACES, 150 mmol/l NaCl, 0.05% (w/v) Tween20, pH 7.4. […] All was immobilized onto sensor chip CM5 by amine coupling, and as an analyte IL-6 was diluted to 1 μmol/l with 10 mmol/1 ACES, 150 mmol/l NaCl, 0.05% (w/v) Tween20, pH 7.4 containing kynurenine at various concentrations, and allowed to interact for 60 seconds to observe changes in the amount of binding.

[4] = molecular target: T2, human IL-6 receptor (soluble hIL-6R); assay: ELISA, biotin-labeled hIL-6R on streptavidin plate, absorbance 450 nm; seven conditions of Table 18
human serum albumin = molecular target: T4, human serum albumin (human, UniProt P02768 25-609, biotin-labeled (sites not given)); assay: ELISA, biotin-labeled HSA on streptavidin plate, absorbance 450 nm; nine small-molecule conditions of Table 3
T4 construct: also called HSA; biotin-labeled HSA

[5] = molecular target: T2, human IL-6 receptor (soluble hIL-6R); assay: SPR Biacore T200, antibody captured on protein A CM5 chip, IL-6R analyte, 25 C, with 100 µmol/l kynurenine; SPR, antibody captured on the chip, IL-6R as analyte, 100 µmol/l kynurenine
Method: Each parameter was calculated using the Biacore T200 Evaluation Software (GE Healthcare).

[6] = molecular target: T2, human IL-6 receptor (soluble hIL-6R); assay: SPR Biacore T200, IL-6R immobilised on CM5, antibody analyte in a concentration series, 1 mM ATP, 25 C; KD from plot of equilibrium value against antibody concentration; SPR, IL-6R on the chip, antibody concentration series, 1 mM ATP, 25 C
Method: The running buffer was used: 20 mmol/1 ACES, 150 mmol/l NaCl, 0.05% (w/v) Tween20, pH 7.4. Assay was carried out at 25° C. […] For dilution of the antibodies, the running buffer or the running buffer containing any one of ATP, ADP, AMP, cAMP, and adenosine (ADO) were used. The final concentration of each small molecule and the final concentration of each antibody were adjusted to 1 mM and 1 μM, respectively. Meanwhile, under the 1 mM ATP condition, assay was carried out with a series of stepwise antibody concentrations. The dissociation constant KD (mol/L) of each clone for IL-6R was calculated from a plot of equilibrium value against antibody concentration. The parameters were calculated using the Biacore T200 Evaluation Software (GE Healthcare).

| Binder | Kd [6] [nM] | other results |
| --- | --- | --- |
| B1 |  | binding result [1]: binds |
| B2 |  | Kd (human IL-6 [2]): 1000 nM; KD printed beside the curve of IL-6 binding against the kynurenine concentration (per paragraph 715 the KD of kynurenine for forming the A11/IL-6/kynurenine complex, not the antibody-antigen KD) (human IL-6 [3]): 32 nM |
| B3 |  | binding result [4]: no binding (tested: 2.5 µg/ml); binding result (human serum albumin): no binding (tested: 2.5 µg/ml) |
| B4 |  | Kd [5]: 1500 nM |
| B5 | 300 |  |
| B6 | 340 |  |
| B7 | 230 |  |
| B8 | 210 |  |
| B9 | 330 |  |
| B10 | 250 |  |
| B11 | 390 |  |
